Biological target: T1, Ras (aa 1-166), bacterially expressed and purified (H-Ras) (UniProt P01112 1-166)
T1 construct: H-Ras aa 1-166 (all Ras constructs were the H-Ras isoform); Used loaded with GDP, loaded with GTPγS, or nucleotide-free (incubated with EDTA without added nucleotide); the nucleotide state is told by the assay; also called Ras 1-166; Ras-GDP; source: E. coli BL21 (pQlink Ras 1-166), purified on nickel beads, His tag cleaved with TEV protease
Experiment: pull-down; nucleotide-free Ras: 250 nM Ras with 850 nM GST protein on glutathione beads in Loading Buffer (15 mM EDTA, 5 mM MgCl2), 30 min at 30°C, no added nucleotide
Conditions: both partners purified

binding result: binds
B1: GST-PI3KC2β-RBD (aa 368-463) (domain or fragment, UniProt O00750 368-463, looked up)
chain: SPEHLGDEVNLKVTVLCDRLQEALTFTCNCSSTVDLLIYQTLCYTHDDLRNVDVGDFVLKPCGLEEFLQNKHALGSHEYIQYCRKFDIDIRLQLME
notes: also called RBD of PI3KC2β; source: E. coli BL21 (DE3), purified on Glutathione Sepharose beads

— paper PMC3441633 (PLoS ONE, 2012)
